This is an account of results in paper PMC3005950.

Test [1] has as its target IL-7Ralpha ECD (Homo sapiens) (UniProt P16871). The following applies: cited from earlier work.
Test [2] addresses IL-7 receptor alpha chain extracellular domain, nonglycosylated, IL-7Ralpha (EC) (UniProt P16871). In words: SPR. The following applies: pH 7.4, 298 K, 10 mM HEPES (pH 7.4).
Test [3] has as its target IL-7 receptor alpha chain extracellular domain, glycosylated, IL-7Ralpha (CHO) (UniProt P16871). Put plainly: SPR. The note with it: pH 7.4, 298 K, 10 mM HEPES (pH 7.4).

Broadly, the Kd is the concentration at which binding is half-saturated. In the case of IL-7 (from UniProt P13232), the Kd in test [1] was 60 nM.

Turning to Interleukin-7 (IL-7), the “ΔG^o” value was -7.72 kcal/mol in test [2] (50 mM NaCl), -4.68 kcal/mol in test [2] (300 mM NaCl), -11.8 kcal/mol in test [3] (50 mM NaCl) and -8.33 kcal/mol in test [3] (1 M NaCl). For the same substance, the k−1 in test [2] (300 mM NaCl) worked out at 0.121 s⁻¹.
